Measured values taken from publication doi:10.1101/2022.10.27.514150 (bioRxiv, 2022).
Values belong to the binder of their own block, whether it stands above or below them.

Assays:
Gluc1-E2F4 = Gluc1-E2F4 (human, UniProt Q16254 1-413); assay: split reporter
Gluc1-TAp73α = molecular target: T1, Gluc1-TAp73α (UniProt O15350 1-636); assay: split reporter
T1 sequence (looked up): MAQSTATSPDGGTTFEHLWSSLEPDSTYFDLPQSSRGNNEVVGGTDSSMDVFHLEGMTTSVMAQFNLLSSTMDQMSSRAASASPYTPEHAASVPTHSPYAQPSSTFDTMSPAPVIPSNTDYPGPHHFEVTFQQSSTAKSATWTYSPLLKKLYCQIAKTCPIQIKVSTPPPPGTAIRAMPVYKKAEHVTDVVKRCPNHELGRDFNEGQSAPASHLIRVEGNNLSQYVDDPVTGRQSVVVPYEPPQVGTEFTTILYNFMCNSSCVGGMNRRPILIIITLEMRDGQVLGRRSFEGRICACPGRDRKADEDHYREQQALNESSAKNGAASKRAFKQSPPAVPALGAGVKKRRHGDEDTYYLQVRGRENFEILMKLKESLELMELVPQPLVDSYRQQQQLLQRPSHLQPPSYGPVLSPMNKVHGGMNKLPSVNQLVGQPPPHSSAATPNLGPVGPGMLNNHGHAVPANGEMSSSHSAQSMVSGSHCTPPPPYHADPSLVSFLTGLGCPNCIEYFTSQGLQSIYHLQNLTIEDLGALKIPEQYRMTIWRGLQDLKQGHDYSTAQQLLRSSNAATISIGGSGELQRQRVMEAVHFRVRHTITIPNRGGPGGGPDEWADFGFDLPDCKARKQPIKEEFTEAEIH

Gluc1-ΔNp73α FL = molecular target: T2, Gluc1-ΔNp73α FL (UniProt O15350-8 1-587); assay: split reporter
T2 sequence (looked up): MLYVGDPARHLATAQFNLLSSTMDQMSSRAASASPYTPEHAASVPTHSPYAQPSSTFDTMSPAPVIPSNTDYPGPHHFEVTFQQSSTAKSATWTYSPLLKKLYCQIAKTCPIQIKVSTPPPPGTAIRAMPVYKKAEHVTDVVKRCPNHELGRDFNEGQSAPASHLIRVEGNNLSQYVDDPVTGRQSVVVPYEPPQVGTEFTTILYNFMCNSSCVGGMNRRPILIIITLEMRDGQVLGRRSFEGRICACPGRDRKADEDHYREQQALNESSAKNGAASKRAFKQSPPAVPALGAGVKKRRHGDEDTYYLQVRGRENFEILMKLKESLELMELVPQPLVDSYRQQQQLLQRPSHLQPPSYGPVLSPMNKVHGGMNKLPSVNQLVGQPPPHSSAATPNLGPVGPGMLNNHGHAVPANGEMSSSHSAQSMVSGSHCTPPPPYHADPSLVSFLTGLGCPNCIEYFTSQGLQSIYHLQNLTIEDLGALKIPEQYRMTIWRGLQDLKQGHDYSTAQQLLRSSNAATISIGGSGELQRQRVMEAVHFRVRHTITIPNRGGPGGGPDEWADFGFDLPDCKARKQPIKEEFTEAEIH

Gluc1-ΔN(74–348) = molecular target: T3, Gluc1-ΔN(74–348) (UniProt O15350-8 74-348); assay: split reporter
T3 sequence (looked up): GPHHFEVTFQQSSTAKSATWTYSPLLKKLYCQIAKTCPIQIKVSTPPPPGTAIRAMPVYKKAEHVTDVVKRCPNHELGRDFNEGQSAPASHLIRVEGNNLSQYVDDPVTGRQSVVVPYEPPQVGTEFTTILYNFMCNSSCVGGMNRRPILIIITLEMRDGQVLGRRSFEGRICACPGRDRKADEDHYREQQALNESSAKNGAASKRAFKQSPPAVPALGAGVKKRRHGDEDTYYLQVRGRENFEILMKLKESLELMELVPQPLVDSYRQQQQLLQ

[1] = molecular target: T4, minimal E2F4/DP1 heterodimer (E2F4s/DP1s) (human, UniProt Q16254 84-413; Q14186 199-350); assay: pull-down
T4 sequence (looked up) 1: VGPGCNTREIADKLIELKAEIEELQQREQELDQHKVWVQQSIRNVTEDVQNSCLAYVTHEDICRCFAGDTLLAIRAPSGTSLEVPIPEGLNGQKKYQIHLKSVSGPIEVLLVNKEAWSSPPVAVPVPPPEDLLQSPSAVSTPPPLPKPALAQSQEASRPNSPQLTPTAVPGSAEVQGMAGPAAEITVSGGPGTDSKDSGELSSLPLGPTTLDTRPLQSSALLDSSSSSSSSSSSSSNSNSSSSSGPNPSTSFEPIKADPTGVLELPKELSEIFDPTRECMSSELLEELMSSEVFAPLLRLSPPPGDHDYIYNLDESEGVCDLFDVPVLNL
T4 sequence (looked up) 2: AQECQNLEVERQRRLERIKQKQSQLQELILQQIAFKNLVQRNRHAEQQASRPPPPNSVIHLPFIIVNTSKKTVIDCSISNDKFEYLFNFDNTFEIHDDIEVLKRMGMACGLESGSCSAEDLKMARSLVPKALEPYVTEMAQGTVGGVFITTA

normalized luminescence ratio (NLR) (Gluc1-E2F4): ~500
B1: Gluc2-DP1 (natural protein, human, UniProt Q14186 1-410, looked up)
chain: MAKDAGLIEANGELKVFIDQNLSPGKGVVSLVAVHPSTVNPLGKQLLPKTFGQSNVNIAQQVVIGTPQRPAASNTLVVGSPHTPSTHFASQNQPSDSSPWSAGKRNRKGEKNGKGLRHFSMKVCEKVQRKGTTSYNEVADELVAEFSAADNHILPNESAYDQKNIRRRVYDALNVLMAMNIISKEKKEIKWIGLPTNSAQECQNLEVERQRRLERIKQKQSQLQELILQQIAFKNLVQRNRHAEQQASRPPPPNSVIHLPFIIVNTSKKTVIDCSISNDKFEYLFNFDNTFEIHDDIEVLKRMGMACGLESGSCSAEDLKMARSLVPKALEPYVTEMAQGTVGGVFITTAGSTSNGTRFSASDLTNGADGMLATSSNGSQYSGSRVETPVSYVGEDDEEDDDFNENDEDD

binding response relative to ΔNp73α (Gluc1-TAp73α): ~50% | normalized luminescence ratio (NLR) (Gluc1-ΔNp73α FL): > 20 | binding relative to ΔNp73α FL/E2F4 FL (Gluc1-ΔN(74–348)): 60%
B2: Gluc2-E2F4 FL (natural protein)
chain: not shown

binding relative to ΔNp73α FL/E2F4 FL (Gluc1-ΔNp73α FL): 20%
B3: Gluc2-E2F(1–90) (domain or fragment)
chain: not shown

binding result [1]: binds
B4: MBP-ΔN(1-348) (domain or fragment, UniProt O15350-8 1-348, looked up)
chain: MLYVGDPARHLATAQFNLLSSTMDQMSSRAASASPYTPEHAASVPTHSPYAQPSSTFDTMSPAPVIPSNTDYPGPHHFEVTFQQSSTAKSATWTYSPLLKKLYCQIAKTCPIQIKVSTPPPPGTAIRAMPVYKKAEHVTDVVKRCPNHELGRDFNEGQSAPASHLIRVEGNNLSQYVDDPVTGRQSVVVPYEPPQVGTEFTTILYNFMCNSSCVGGMNRRPILIIITLEMRDGQVLGRRSFEGRICACPGRDRKADEDHYREQQALNESSAKNGAASKRAFKQSPPAVPALGAGVKKRRHGDEDTYYLQVRGRENFEILMKLKESLELMELVPQPLVDSYRQQQQLLQ

binding relative to ΔNp73α FL/E2F4 FL (Gluc1-ΔNp73α FL): 60%
B5: Gluc2-E2F(1–336) (domain or fragment)
chain: not shown
